# Measured values as given in the supplement of paper PMC9112550, “Optimization of the antimicrobial peptide Bac7 by deep mutational scanning” (BMC Biology, 2022).
# System: Escherichia coli TOP10
# Test: shrunken log2 fold change of peptide-encoding DNA abundance (4.5 h post-induction vs induction); higher = less antimicrobial activity (less host growth inhibition)
# Settings: time post-induction: 4.5 h; library: site-saturation at positions 5, 18, 19, 20
# 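Note: peptides expressed intracellularly from a pBAD plasmid library in pooled LB shake-flask culture, induced with 0.3% L-arabinose, DNA abundance read by NGS, three biological replicates, DESeq2 with apeglm shrinkage.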
row,Sequence,shrunken log2 fold change
1,RRIRYRPPRLPRPRPRPWIGPRP,-0.314
2,RRIRVRPPRLPRPRPRPFQYPRP,-0.453
3,RRIRGRPPRLPRPRPRPCYYPRP,-0.00676
4,RRIRGRPPRLPRPRPRPAQEPRP,0.547
5,RRIRTRPPRLPRPRPRPDWVPRP,0.0189
6,RRIRKRPPRLPRPRPRPWRWPRP,0.595
7,RRIRQRPPRLPRPRPRPWIDPRP,-0.0353
8,RRIRTRPPRLPRPRPRPAAQPRP,0.312
9,RRIRQRPPRLPRPRPRPQYSPRP,0.124
10,RRIRVRPPRLPRPRPRPSIRPRP,-0.285
11,RRIRHRPPRLPRPRPRPSNLPRP,-0.289
12,RRIRPRPPRLPRPRPRPNMLPRP,-0.367
13,RRIRARPPRLPRPRPRPTWLPRP,0.33
14,RRIRGRPPRLPRPRPRPQACPRP,0.27
15,RRIRCRPPRLPRPRPRPYYGPRP,-0.199
16,RRIRQRPPRLPRPRPRPGGYPRP,0.144
17,RRIRFRPPRLPRPRPRPPDPPRP,0.571
18,RRIRERPPRLPRPRPRPEPNPRP,0.366
19,RRIRERPPRLPRPRPRPFMPPRP,-0.777
20,RRIRFRPPRLPRPRPRPMGCPRP,0.125
21,RRIRPRPPRLPRPRPRPWKHPRP,-0.19
22,RRIRMRPPRLPRPRPRPHCYPRP,-0.0522
23,RRIRKRPPRLPRPRPRPFFGPRP,0.304
24,RRIRGRPPRLPRPRPRPLWVPRP,0.472
25,RRIRFRPPRLPRPRPRPEADPRP,0.24

row,Sequence,shrunken log2 fold change
1,RRIRQRPPRLPRPRPRPHKVPRP,-0.481
2,RRIRCRPPRLPRPRPRPWGAPRP,0.0457
3,RRIRMRPPRLPRPRPRPMEQPRP,1.29
4,RRIRRRPPRLPRPRPRPPANPRP,0.731
5,RRIRSRPPRLPRPRPRPNWLPRP,0.18
6,RRIRRRPPRLPRPRPRPYEWPRP,0.00618
7,RRIRLRPPRLPRPRPRPPNLPRP,-0.321
8,RRIRHRPPRLPRPRPRPATPPRP,0.299
9,RRIRNRPPRLPRPRPRPQADPRP,-0.0176
10,RRIRQRPPRLPRPRPRPLQVPRP,-0.0738
11,RRIRWRPPRLPRPRPRPVWIPRP,0.142
12,RRIRSRPPRLPRPRPRPGNFPRP,0.00825
13,RRIRNRPPRLPRPRPRPRSQPRP,-0.0986
14,RRIRNRPPRLPRPRPRPIPNPRP,-0.428
15,RRIRMRPPRLPRPRPRPCYAPRP,-0.105
16,RRIRGRPPRLPRPRPRPSNNPRP,0.0994
17,RRIRIRPPRLPRPRPRPKSKPRP,-0.298
18,RRIRGRPPRLPRPRPRPHSFPRP,2.05
19,RRIRQRPPRLPRPRPRPIQLPRP,-0.333
20,RRIRKRPPRLPRPRPRPEEMPRP,-0.000157
21,RRIRSRPPRLPRPRPRPPDGPRP,0.447
22,RRIRFRPPRLPRPRPRPAHRPRP,0.418
23,RRIRVRPPRLPRPRPRPGWEPRP,0.123
24,RRIRQRPPRLPRPRPRPPINPRP,-0.00134
25,RRIRYRPPRLPRPRPRPPMNPRP,-0.728

row,Sequence,shrunken log2 fold change
1,RRIRARPPRLPRPRPRPDNLPRP,-0.0846
2,RRIRFRPPRLPRPRPRPCGVPRP,0.0327
3,RRIRCRPPRLPRPRPRPVTVPRP,-0.484
4,RRIRDRPPRLPRPRPRPTGSPRP,0.0325
5,RRIRPRPPRLPRPRPRPTKTPRP,0.132
6,RRIRCRPPRLPRPRPRPGMPPRP,-0.257
7,RRIRKRPPRLPRPRPRPHADPRP,0.0566
8,RRIRWRPPRLPRPRPRPPIHPRP,-0.448
9,RRIRNRPPRLPRPRPRPMYTPRP,-0.48
10,RRIRDRPPRLPRPRPRPLYYPRP,0.176
11,RRIRNRPPRLPRPRPRPEPKPRP,0.0124
12,RRIRQRPPRLPRPRPRPCTMPRP,-0.804
13,RRIRTRPPRLPRPRPRPRYDPRP,-0.123
14,RRIRARPPRLPRPRPRPWQCPRP,-0.197
15,RRIRPRPPRLPRPRPRPDPFPRP,-0.0897
16,RRIRCRPPRLPRPRPRPGNSPRP,-0.429
17,RRIRERPPRLPRPRPRPAHEPRP,0.0932
18,RRIRDRPPRLPRPRPRPEFVPRP,0.204
19,RRIRTRPPRLPRPRPRPWLTPRP,-0.0866
20,RRIRDRPPRLPRPRPRPESTPRP,-0.0182
21,RRIRFRPPRLPRPRPRPAYMPRP,-0.564
22,RRIRLRPPRLPRPRPRPDPHPRP,-0.171
23,RRIRGRPPRLPRPRPRPTQYPRP,0.337
24,RRIRIRPPRLPRPRPRPHLTPRP,-0.379
25,RRIRFRPPRLPRPRPRPHFIPRP,-0.473
